Where a chain is given by its changes, count along the chain named. One block for each molecule: values may come before it.
Columns and labels:
[1] = target: SETMAR DNA-binding domain, residues 329 to 440 (C381R) (I359M) (L423M) (human); assay: crystal structure; SETMAR DBD 329-440 (C381R, I359M, L423M) with brominated 25-mer TIR DNA duplex, protein:DNA 1:1.2, 50 mM Hepes pH 7.5, 150 mM NaCl, 1 mM DTT; hanging drops at 20 °C, 0.1 M magnesium formate, 15% PEG3350; 2.37 Å
[2] = target: T1, SETMAR R432A (Homo sapiens, UniProt Q53H47 14-684, R445A); assay: fluorescence anisotropy; 10 nM probe; FA and competition: 50 mM Hepes pH 7.0, 150 mM NaCl, 1 mM DTT; temperature not stated. Crystals: 50 mM Hepes pH 7.5, 150 mM NaCl, 1 mM DTT; 0.1 M Mg formate, 15% PEG3350, 20 C; details: protein: recombinant; chain copies: 2; label: 5' rhodamine (C6 amino) on strand 2; blunt
T1 sequence: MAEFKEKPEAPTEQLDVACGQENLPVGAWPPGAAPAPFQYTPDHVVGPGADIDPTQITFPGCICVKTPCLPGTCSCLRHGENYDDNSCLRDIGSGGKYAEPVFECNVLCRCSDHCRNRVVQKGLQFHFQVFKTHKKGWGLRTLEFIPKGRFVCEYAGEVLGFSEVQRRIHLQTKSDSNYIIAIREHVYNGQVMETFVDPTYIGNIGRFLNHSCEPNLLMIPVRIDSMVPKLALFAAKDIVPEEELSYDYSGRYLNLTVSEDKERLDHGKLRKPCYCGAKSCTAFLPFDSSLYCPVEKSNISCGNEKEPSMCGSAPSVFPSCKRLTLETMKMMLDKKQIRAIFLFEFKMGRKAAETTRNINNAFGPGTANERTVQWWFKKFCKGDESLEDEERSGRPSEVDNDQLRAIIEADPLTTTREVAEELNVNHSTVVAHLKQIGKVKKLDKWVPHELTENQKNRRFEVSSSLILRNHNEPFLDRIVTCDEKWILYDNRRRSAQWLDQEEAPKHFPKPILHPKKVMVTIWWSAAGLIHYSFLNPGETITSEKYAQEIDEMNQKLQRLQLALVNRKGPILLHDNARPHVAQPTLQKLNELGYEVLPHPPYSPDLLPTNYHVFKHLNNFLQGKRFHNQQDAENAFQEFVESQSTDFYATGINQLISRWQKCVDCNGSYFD

[3] = target: T2, SETMAR S428A (Homo sapiens, UniProt Q53H47 14-684, S441A); assay: as above; details: protein: recombinant; chain copies: 2; label: 5' rhodamine (C6 amino) on strand 2; blunt
T2 sequence: T1 sequence with S428A, A432R

[4] = target: T3, SETMAR R371A (Homo sapiens, UniProt Q53H47 14-684, R384A); assay: as above; details: protein: recombinant; chain copies: 2; label: 5' rhodamine (C6 amino) on strand 2; blunt
T3 sequence: T1 sequence with R371A, A432R

[5] = target: T4, SETMAR full-length WT (Homo sapiens, UniProt Q53H47 14-684); assay: fluorescence anisotropy; 20 nM probe; FA and competition: 50 mM Hepes pH 7.0, 150 mM NaCl, 1 mM DTT; temperature not stated. Crystals: 50 mM Hepes pH 7.5, 150 mM NaCl, 1 mM DTT; 0.1 M Mg formate, 15% PEG3350, 20 C; details: protein: recombinant; chain copies: 2; label: 5' rhodamine (C6 amino) on strand 2; blunt
T4 sequence: T1 sequence with A432R

[6] = target: T4, SETMAR full-length WT; assay: fluorescence anisotropy; 10 nM probe; mutant comparison series; FA and competition: 50 mM Hepes pH 7.0, 150 mM NaCl, 1 mM DTT; temperature not stated. Crystals: 50 mM Hepes pH 7.5, 150 mM NaCl, 1 mM DTT; 0.1 M Mg formate, 15% PEG3350, 20 C; details: protein: recombinant; chain copies: 2; label: 5' rhodamine (C6 amino) on strand 2; blunt
[7] = target: T5, SETMAR DBD C381R (Homo sapiens, UniProt Q53H47 342-453, C394R); assay: X-ray crystallography; 2.37 A; FA and competition: 50 mM Hepes pH 7.0, 150 mM NaCl, 1 mM DTT; temperature not stated. Crystals: 50 mM Hepes pH 7.5, 150 mM NaCl, 1 mM DTT; 0.1 M Mg formate, 15% PEG3350, 20 C; details: protein: recombinant; tags: none (His-SUMO removed); chain copies: 2; 25 bp, 3' overhang 1 nt on each strand (A and T)
T5 sequence: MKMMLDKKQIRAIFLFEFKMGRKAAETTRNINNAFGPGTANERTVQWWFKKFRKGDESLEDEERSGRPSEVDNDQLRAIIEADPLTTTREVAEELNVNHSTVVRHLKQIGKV

[8] = target: T4, SETMAR full-length WT; assay: competition (fluorescence anisotropy); 300 nM protein, 20 nM probe; FA and competition: 50 mM Hepes pH 7.0, 150 mM NaCl, 1 mM DTT; temperature not stated. Crystals: 50 mM Hepes pH 7.5, 150 mM NaCl, 1 mM DTT; 0.1 M Mg formate, 15% PEG3350, 20 C; details: protein: recombinant; chain copies: 2; blunt
[9] = target: T6, SETMAR DBD C381R I359M L423M (SeMet) (Homo sapiens, UniProt Q53H47 342-453, I372M;C394R;L436M); assay: X-ray crystallography; Se-SAD phasing, 2.66 A; FA and competition: 50 mM Hepes pH 7.0, 150 mM NaCl, 1 mM DTT; temperature not stated. Crystals: 50 mM Hepes pH 7.5, 150 mM NaCl, 1 mM DTT; 0.1 M Mg formate, 15% PEG3350, 20 C; details: protein: recombinant; tags: none (His-SUMO removed); chain copies: 2; 25 bp, 3' overhang 1 nt on each strand (A and T)
T6 sequence: T5 sequence with I31M, L95M

stoichiometry N [1]: 2
Molecule: SETMAR DNA-binding domain, residues 329 to 440 (C381R) (I359M) (L423M) (domain or fragment)

B1: rhodamine Hsmar1 TIR probe (dsDNA)
DNA 1: TTAGGTTGGTGCAAAAGTAATTGCGGTT
DNA 2: AACCGCAATTACTTTTGCACCAACCTAA
Kd [2]: 0.302 ± 0.047 µM | Kd [3]: 0.485 ± 0.058 µM | Kd [4]: 0.521 ± 0.065 µM | Kd [5]: 0.053 ± 0.004 µM | Kd [6]: 0.042 ± 0.005 µM

B2: TIR crystallization duplex (dsDNA)
DNA 1: GGTTGGTGCAAAAGTAATTGCGGTTA
DNA 2: AACCGCAATTACTTTTGCACCAACCT
binding result [7]: binds

B3: Mos1 TIR (dsDNA)
DNA 1: TCAGGTGTACAAGTATGAAATGTCGTTT
DNA 2: AAACGACATTTCATACTTGTACACCTGA
binding result [8]: no binding

B4: Hsmar1 TIR without sequence-specific binding sites (dsDNA)
DNA 1: TTAGGTTAATATAAAAGTAATTGTGGTT
DNA 2: AACCACAATTACTTTTATATTAACCTAA
binding result [8]: no binding

B5: BrdU-substituted TIR crystallization duplex (dsDNA)
DNA 1: GGTTGGTGCAAAAGTAATTGCGGTTA
DNA 2: AACCGCAATTACTTTTGCACCAACCT
modifications: 5-bromodeoxyuridine replacing underlined Ts (positions not visible in text)
binding result [9]: binds
